Data taken from PMC10983988.

T1: m-TREX1 (Three Prime Repair Exonuclease 1, catalytic domain) (mouse, UniProt Q91XB0 1-242)
T1 sequence: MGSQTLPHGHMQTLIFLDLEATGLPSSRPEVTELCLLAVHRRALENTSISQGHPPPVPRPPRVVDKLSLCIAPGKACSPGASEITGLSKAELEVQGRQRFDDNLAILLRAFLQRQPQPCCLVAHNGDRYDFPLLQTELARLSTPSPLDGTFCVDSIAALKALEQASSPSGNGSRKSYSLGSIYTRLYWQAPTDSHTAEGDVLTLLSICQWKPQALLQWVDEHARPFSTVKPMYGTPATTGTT

B1: U3 unprocessed (dsDNA)
DNA 1: AGTGAATTAGCCCTTCCAGT
DNA 2: ACTGGAAGGGCTAATTCACT
B2: U3 3'-processed (dsDNA)
DNA 1: AGTGAATTAGCCCTTCCA
DNA 2: ACTGGAAGGGCTAATTCACT

Biological target: T1, m-TREX1 (Three Prime Repair Exonuclease …)
Assay: fluorescence polarization anisotropy

Binder	Kd
B1	118 ± 8.4 nM
B2	216 ± 4.6 nM
